According to patent publication US6531296B1, “Nuclear tyrosine kinase Rak” (The University of North Carolina at Chapel Hill, priority 1995, dated 2003):
No end group written: not given here.

Biological target: T1, CDC2 (Homo sapiens, UniProt P06493)
T1 construct: incubated with immunoprecipitated CDC2; endogenous in cells
Assay: In vitro kinase assay of immunoprecipitated CDC2 with Histone H1 as exogenous substrate
Format: biochemical
Procedure: The 110 N-terminal amino acids of Rak were produced as a GST fusion protein (RAKNT:GST) and incubated with immunoprecipitated CDC2, and subjected to an in vitro kinase assay with Histone H1 added as an exogenous substrate, and analyzed by SDS-PAGE. […] This fusion protein was incubated with immunoprecipitated CDC2, and subjected to an in vitro kinase assay with Histone H1 added as an exogenous substrate, and analyzed by SDS-PAGE.
The CDC2 binding domain of RAK appears to be between amino acids 86-110. Since the binding of RAK to CDC2 is exceptionally strong, the biological function of this interaction was explored.

T1 sequence (P06493 whole entry): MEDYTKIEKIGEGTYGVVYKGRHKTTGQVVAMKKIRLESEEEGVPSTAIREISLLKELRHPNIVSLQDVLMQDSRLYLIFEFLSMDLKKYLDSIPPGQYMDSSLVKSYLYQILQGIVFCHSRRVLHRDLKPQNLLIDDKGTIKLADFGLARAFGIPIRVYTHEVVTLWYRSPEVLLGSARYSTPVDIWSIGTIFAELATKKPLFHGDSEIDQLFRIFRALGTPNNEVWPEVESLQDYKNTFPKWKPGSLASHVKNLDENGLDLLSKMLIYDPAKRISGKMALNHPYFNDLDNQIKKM

- inhibition of CDC2 histone H1 phosphorylation activity: reproducibly attenuated
Sequence: KRRDGSSQQLQ [SEQ ID NO:4]
